Results published in article PMC4816226.

Target: biotinylated bovine serum albumin (bovine) (UniProt P02769)
Assay: broad-band Mach-Zehnder interferometry (label-free, TE and TM phase shifts); multiplexed chip: mouse IgG (WGs 1, 4, 7, 10), biotinylated-BSA (WGs 2, 5, 8) and BSA blanks spotted on the sensing arms, blocked with BSA; 1 nM streptavidin in assay buffer (50 mM phosphate, pH 7.4, 10 g/L BSA) for 20 min, then 10 nM anti-mouse IgG antibody for 20 min; 20 ul/min

Chain of UniProt P02769 (P02769 25-607): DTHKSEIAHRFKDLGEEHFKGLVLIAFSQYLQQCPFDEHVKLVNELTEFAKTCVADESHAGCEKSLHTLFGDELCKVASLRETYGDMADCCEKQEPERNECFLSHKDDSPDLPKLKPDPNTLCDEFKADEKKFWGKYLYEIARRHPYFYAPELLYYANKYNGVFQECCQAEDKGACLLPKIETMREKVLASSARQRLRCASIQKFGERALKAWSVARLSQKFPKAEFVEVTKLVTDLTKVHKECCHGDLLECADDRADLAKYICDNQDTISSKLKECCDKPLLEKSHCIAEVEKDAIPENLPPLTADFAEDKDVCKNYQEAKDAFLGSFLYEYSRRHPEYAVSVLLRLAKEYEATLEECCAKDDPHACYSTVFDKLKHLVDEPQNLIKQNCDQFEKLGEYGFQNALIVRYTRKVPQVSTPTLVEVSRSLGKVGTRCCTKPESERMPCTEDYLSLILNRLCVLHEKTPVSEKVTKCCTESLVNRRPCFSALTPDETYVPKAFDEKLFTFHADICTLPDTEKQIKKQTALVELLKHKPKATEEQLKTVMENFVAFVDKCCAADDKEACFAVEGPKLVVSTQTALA

TE phase shift after 20 min with 1 nM streptavidin (interferometer 2): 4.48 radians
TE phase shift after 20 min with 1 nM streptavidin (interferometer 5): 4.56 radians
TE phase shift after 20 min with 1 nM streptavidin (interferometer 8): 4.25 radians
TM phase shift after 20 min with 1 nM streptavidin (interferometer 2): 6.02 radians
TM phase shift after 20 min with 1 nM streptavidin (interferometer 5): 6.87 radians
TM phase shift after 20 min with 1 nM streptavidin (interferometer 8): 5.73 radians
Substance: Immunopure Streptavidin (from UniProt P22629 25-183) (natural protein)
